How the values were obtained:
sclerostin [1] = target: sclerostin (UniProt Q9BQB4 Q9BQB4:24-213); experiment: cell_activity; inhibition potency, TOP-Wnt luciferase reporter; conditions: tags: expressed from transfected sclerostin plasmid in MC3T3-E1 cells
Method: To study the inhibition potency of aptamers against sclerostin's antagonistic effect on Wnt signaling, a TOP-Wnt induced luciferase reporter assay was used in osteoblast MC3T3-E1 cells (van Bezooijen, Svensson et al. 2007, Shum, Chan et al. 2011).
MC3T3-E1 cells were seeded in 24-well plates and cells were transfected with corresponding reporter plasmid (100 ng), Wnt3a plasmid (800 ng) and sclerostin plasmid (800 ng) as necessary using FuGENE HD transfection reagent (Promega) in the following day. 10 hours after transfection, culture medium was changed to fresh medium and cells were treated with aptamers/antibody. 24 hours after treatment, each well of cells was lysed with 100 μl passive lysis buffer and 20 μl was taken for analysis. The Luciferase Assay Reagent II and Stop & Glo Reagent were prepared and added automatically by SpectraMax i3x Multi-Mode Detection Platform (Molecular Device) according to the manufacturer's protocol (Promega) and data was analyzed accordingly (Grentzmann, Ingram et al. 1998, McNabb, Reed et al. 2005).

sclerostin [2] = target: sclerostin (Homo sapiens, UniProt Q9BQB4 SEQ:1-190); experiment: ELONA; PBS, 1 mM MgCl2, RT; p158 prints 3' end as CT GCCC, APC001 as U G C C; conditions: tags: His6 (SELEX protein); recombinant human sclerostin
sclerostin (Homo sapiens, UniProt Q9BQB4 SEQ:1-190), sequence (Q9BQB4 24-213): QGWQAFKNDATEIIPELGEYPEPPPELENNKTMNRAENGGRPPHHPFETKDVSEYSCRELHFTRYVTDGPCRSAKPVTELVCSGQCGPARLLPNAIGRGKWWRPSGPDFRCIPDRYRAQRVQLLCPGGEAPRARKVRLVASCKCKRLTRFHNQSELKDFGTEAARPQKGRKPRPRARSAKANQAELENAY
Method: An Enzyme-linked OligoNucleotide Assay (ELONA) was performed to determine the binding affinity of the aptamer candidates to sclerostin (Drolet, Moon-McDermott et al. 1996). Similarly, an Enzyme-linked ImmunoSorbent Assay (ELISA) was performed to determine the binding affinity of anti-sclerostin antibody to human sclerostin (Engvall and Perlmann 1971). 160 ng purified recombinant human sclerostin was coated to 96-well microtiter plate in 100 μl PBS by incubating at 4° C. overnight. The plate was then blocked with blocking buffer (PBS, 0.1% Tween 20 and 1% BSA) for 1 h at room temperature and washed with SELEX B&W buffer (PBS, 1mM MgCl2, 0.1% Tween 20 and 0.1% BSA) for 4 times. The aptamer candidates were denatured at 95° C. for 10 min and rapidly cooled on ice for 10 min before use. Appropriate concentrations of biotinylated aptamers/antibody were added into each well, then added SELEX B&W buffer to 100 μl and incubated for 45 min at room temperature with continuous gentle shaking. After binding, the plate was washed with SELEX B&W buffer for 4 times to remove non-specific and very weak binding, followed by washing with PBST+0.1% BSA for 4 times. […] Absorbance at 450 nm was measured with microplate reader (Stoltenburg, Krafcikova et al. 2016). Data was analyzed with Origin software (OriginLab, Northampton, MA). […]

sclerostin (UniProt Q9BQB4 Q9BQB4:24-213), sequence (Q9BQB4 24-213, one chain of several): as the sequence (Q9BQB4 24-213) above

## CGGGGTGTGGGTTCGTCGTTAGCTTGATTTGGCAGCTGCC (ssDNA, 2'-OMe on first 4 (CGGG) and last 4 nucleotides; 3' idT) [modified aptscl 56]
Sclerostin [1]
  EC50: 14 µg/mL
Sclerostin [2]
  Kd: 6.55 nM

Reference: patent US20240200081A1, “NUCLEIC ACID MOLECULE CONJUGATE HAVING PROLONGED IN VIVO HALF-LIFE” (APTACURE THERAPEUTICS LIMITED, published 2024)
